Test system: Escherichia coli TOP10
Experiment: shrunken log2 fold change of peptide-encoding DNA abundance (4.5 h post-induction vs induction); higher = less antimicrobial activity (less host growth inhibition)
Conditions: time post-induction: 4.5 h; library: site-saturation at positions 5, 18, 19, 20
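Also: peptides expressed intracellularly from a pBAD plasmid library in pooled LB shake-flask culture, induced with 0.3% L-arabinose, DNA abundance read by NGS, three biological replicates, DESeq2 with apeglm shrinkage.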

| Sequence | shrunken log2 fold change |
| --- | --- |
| RRIRWRPPRLPRPRPRPRPIPRP | 0.434 |
| RRIRWRPPRLPRPRPRPRQVPRP | 0.16 |
| RRIRWRPPRLPRPRPRPRRNPRP | 0.0585 |
| RRIRWRPPRLPRPRPRPRSAPRP | 0.294 |
| RRIRWRPPRLPRPRPRPRSDPRP | 0.618 |
| RRIRWRPPRLPRPRPRPRTWPRP | 0.292 |
| RRIRWRPPRLPRPRPRPSDHPRP | -0.474 |
| RRIRWRPPRLPRPRPRPSDTPRP | 0.0558 |
| RRIRWRPPRLPRPRPRPSFIPRP | -0.545 |
| RRIRWRPPRLPRPRPRPSHMPRP | -0.668 |
| RRIRWRPPRLPRPRPRPSILPRP | -0.341 |
| RRIRWRPPRLPRPRPRPSKAPRP | -0.287 |
| RRIRWRPPRLPRPRPRPSKCPRP | -0.00209 |
| RRIRWRPPRLPRPRPRPSLAPRP | 0.428 |
| RRIRWRPPRLPRPRPRPSLHPRP | -0.044 |
| RRIRWRPPRLPRPRPRPSLSPRP | 1.36 |
| RRIRWRPPRLPRPRPRPSNDPRP | 0.391 |
| RRIRWRPPRLPRPRPRPSNRPRP | -0.174 |
| RRIRWRPPRLPRPRPRPSPAPRP | 0.348 |
| RRIRWRPPRLPRPRPRPSREPRP | 0.807 |
| RRIRWRPPRLPRPRPRPSRPPRP | 0.402 |
| RRIRWRPPRLPRPRPRPSRRPRP | 0.215 |
| RRIRWRPPRLPRPRPRPSSEPRP | 0.0908 |
| RRIRWRPPRLPRPRPRPSSNPRP | -0.0759 |
| RRIRWRPPRLPRPRPRPSSTPRP | 0.0549 |

| Sequence | shrunken log2 fold change |
| --- | --- |
| RRIRWRPPRLPRPRPRPSTKPRP | -0.0244 |
| RRIRWRPPRLPRPRPRPSVMPRP | -0.333 |
| RRIRWRPPRLPRPRPRPSVPPRP | 0.045 |
| RRIRWRPPRLPRPRPRPSWQPRP | -0.0268 |
| RRIRWRPPRLPRPRPRPSYAPRP | 0.0124 |
| RRIRWRPPRLPRPRPRPSYDPRP | -0.256 |
| RRIRWRPPRLPRPRPRPSYQPRP | -1.04 |
| RRIRWRPPRLPRPRPRPTCWPRP | 0.183 |
| RRIRWRPPRLPRPRPRPTDTPRP | -0.0769 |
| RRIRWRPPRLPRPRPRPTEMPRP | -0.00675 |
| RRIRWRPPRLPRPRPRPTEPPRP | -0.0787 |
| RRIRWRPPRLPRPRPRPTFCPRP | 0.478 |
| RRIRWRPPRLPRPRPRPTFFPRP | 0.312 |
| RRIRWRPPRLPRPRPRPTHAPRP | 0.787 |
| RRIRWRPPRLPRPRPRPTHRPRP | 0.8 |
| RRIRWRPPRLPRPRPRPTHSPRP | 0.331 |
| RRIRWRPPRLPRPRPRPTITPRP | -0.335 |
| RRIRWRPPRLPRPRPRPTKAPRP | 0.122 |
| RRIRWRPPRLPRPRPRPTKHPRP | -0.118 |
| RRIRWRPPRLPRPRPRPTLKPRP | 0.0453 |
| RRIRWRPPRLPRPRPRPTLTPRP | 0.697 |
| RRIRWRPPRLPRPRPRPTLVPRP | -0.212 |
| RRIRWRPPRLPRPRPRPTPEPRP | 0.711 |
| RRIRWRPPRLPRPRPRPTPGPRP | 0.572 |
| RRIRWRPPRLPRPRPRPTPMPRP | 0.24 |

| Sequence | shrunken log2 fold change |
| --- | --- |
| RRIRWRPPRLPRPRPRPTSRPRP | 0.0324 |
| RRIRWRPPRLPRPRPRPTTCPRP | -0.00726 |
| RRIRWRPPRLPRPRPRPTTKPRP | 0.5 |
| RRIRWRPPRLPRPRPRPTVNPRP | 0.0302 |
| RRIRWRPPRLPRPRPRPVADPRP | 1.07 |
| RRIRWRPPRLPRPRPRPVAEPRP | 1.41 |
| RRIRWRPPRLPRPRPRPVAKPRP | 0.404 |
| RRIRWRPPRLPRPRPRPVARPRP | 0.359 |
| RRIRWRPPRLPRPRPRPVCAPRP | 0.553 |
| RRIRWRPPRLPRPRPRPVEMPRP | 0.206 |
| RRIRWRPPRLPRPRPRPVGAPRP | 1.73 |
| RRIRWRPPRLPRPRPRPVGEPRP | 1.01 |
| RRIRWRPPRLPRPRPRPVGGPRP | 0.494 |
| RRIRWRPPRLPRPRPRPVIGPRP | 0.183 |
| RRIRWRPPRLPRPRPRPVITPRP | 0.362 |
| RRIRWRPPRLPRPRPRPVLGPRP | 0.241 |
| RRIRWRPPRLPRPRPRPVLKPRP | 0.637 |
| RRIRWRPPRLPRPRPRPVLWPRP | 0.809 |
| RRIRWRPPRLPRPRPRPVMTPRP | 0.569 |
| RRIRWRPPRLPRPRPRPVNEPRP | -0.0791 |
| RRIRWRPPRLPRPRPRPVPNPRP | 0.0838 |
| RRIRWRPPRLPRPRPRPVQYPRP | -0.108 |
| RRIRWRPPRLPRPRPRPVRAPRP | 0.636 |
| RRIRWRPPRLPRPRPRPVRDPRP | 0.687 |
| RRIRWRPPRLPRPRPRPVRQPRP | 0.161 |

| Sequence | shrunken log2 fold change |
| --- | --- |
| RRIRWRPPRLPRPRPRPVSVPRP | -0.258 |
| RRIRWRPPRLPRPRPRPVTLPRP | -0.147 |
| RRIRWRPPRLPRPRPRPVVHPRP | -0.102 |
| RRIRWRPPRLPRPRPRPVVKPRP | -0.322 |
| RRIRWRPPRLPRPRPRPVYCPRP | -0.196 |
| RRIRWRPPRLPRPRPRPVYHPRP | 0.161 |
| RRIRWRPPRLPRPRPRPVYRPRP | -0.0858 |
| RRIRWRPPRLPRPRPRPWAFPRP | 0.044 |
| RRIRWRPPRLPRPRPRPWCVPRP | -0.032 |
| RRIRWRPPRLPRPRPRPWDGPRP | 0.00386 |
| RRIRWRPPRLPRPRPRPWFCPRP | -0.0932 |
| RRIRWRPPRLPRPRPRPWFMPRP | -0.222 |
| RRIRWRPPRLPRPRPRPWFWPRP | 0.123 |
| RRIRWRPPRLPRPRPRPWGHPRP | -0.404 |
| RRIRWRPPRLPRPRPRPWGQPRP | -0.0525 |
| RRIRWRPPRLPRPRPRPWIEPRP | 0.0929 |
| RRIRWRPPRLPRPRPRPWKLPRP | -0.00166 |
| RRIRWRPPRLPRPRPRPWLDPRP | -0.231 |
| RRIRWRPPRLPRPRPRPWNEPRP | 0.0237 |
| RRIRWRPPRLPRPRPRPWNGPRP | 0.0206 |
| RRIRWRPPRLPRPRPRPWQRPRP | 0.551 |
| RRIRWRPPRLPRPRPRPWQYPRP | -0.0277 |
| RRIRWRPPRLPRPRPRPWSLPRP | 0.0526 |
| RRIRWRPPRLPRPRPRPWSRPRP | -0.132 |
| RRIRWRPPRLPRPRPRPWTTPRP | -0.148 |

| Sequence | shrunken log2 fold change |
| --- | --- |
| RRIRWRPPRLPRPRPRPWVEPRP | 0.0386 |
| RRIRWRPPRLPRPRPRPWVQPRP | 0.128 |
| RRIRWRPPRLPRPRPRPWVWPRP | 0.0506 |
| RRIRWRPPRLPRPRPRPWWGPRP | 0.0568 |
| RRIRWRPPRLPRPRPRPYAMPRP | 0.0576 |
| RRIRWRPPRLPRPRPRPYDWPRP | -0.0803 |
| RRIRWRPPRLPRPRPRPYGPPRP | -0.0264 |
| RRIRWRPPRLPRPRPRPYIRPRP | -0.359 |
| RRIRWRPPRLPRPRPRPYIYPRP | -0.541 |
| RRIRWRPPRLPRPRPRPYKMPRP | 0.0642 |
| RRIRWRPPRLPRPRPRPYKRPRP | -0.977 |
| RRIRWRPPRLPRPRPRPYKTPRP | -0.0554 |
| RRIRWRPPRLPRPRPRPYMNPRP | -1.44 |
| RRIRWRPPRLPRPRPRPYMSPRP | -0.212 |
| RRIRWRPPRLPRPRPRPYNNPRP | -0.991 |
| RRIRWRPPRLPRPRPRPYNRPRP | -1.09 |
| RRIRWRPPRLPRPRPRPYPRPRP | -0.632 |
| RRIRWRPPRLPRPRPRPYQHPRP | -0.692 |
| RRIRWRPPRLPRPRPRPYQPPRP | -0.0963 |
| RRIRWRPPRLPRPRPRPYRHPRP | -0.0902 |
| RRIRWRPPRLPRPRPRPYRSPRP | 0.0201 |
| RRIRWRPPRLPRPRPRPYSSPRP | -1.07 |
| RRIRWRPPRLPRPRPRPYSWPRP | -0.128 |
| RRIRWRPPRLPRPRPRPYVLPRP | -0.843 |
| RRIRWRPPRLPRPRPRPYWWPRP | -0.0939 |

| Sequence | shrunken log2 fold change |
| --- | --- |
| RRIRWRPPRLPRPRPRPYYDPRP | -0.262 |
| RRIRYRPPRLPRPRPRPAADPRP | -0.0866 |
| RRIRYRPPRLPRPRPRPAAHPRP | -0.134 |
| RRIRYRPPRLPRPRPRPACAPRP | -0.236 |
| RRIRYRPPRLPRPRPRPAEGPRP | -0.169 |
| RRIRYRPPRLPRPRPRPAEIPRP | -0.148 |
| RRIRYRPPRLPRPRPRPAEPPRP | 0.0314 |
| RRIRYRPPRLPRPRPRPAEWPRP | 0.00902 |
| RRIRYRPPRLPRPRPRPAIYPRP | -0.121 |
| RRIRYRPPRLPRPRPRPAQEPRP | 0.075 |
| RRIRYRPPRLPRPRPRPARVPRP | -0.0653 |
| RRIRYRPPRLPRPRPRPASWPRP | 0.299 |
| RRIRYRPPRLPRPRPRPATKPRP | 0.171 |
| RRIRYRPPRLPRPRPRPAVMPRP | -0.231 |
| RRIRYRPPRLPRPRPRPCCFPRP | -0.709 |
| RRIRYRPPRLPRPRPRPCCWPRP | 0.0911 |
| RRIRYRPPRLPRPRPRPCDTPRP | -0.0977 |
| RRIRYRPPRLPRPRPRPCDVPRP | -0.739 |
| RRIRYRPPRLPRPRPRPCEPPRP | 0.0986 |
| RRIRYRPPRLPRPRPRPCGPPRP | -0.436 |
| RRIRYRPPRLPRPRPRPCGRPRP | -0.00865 |
| RRIRYRPPRLPRPRPRPCHYPRP | -0.00968 |
| RRIRYRPPRLPRPRPRPCIFPRP | -0.559 |
| RRIRYRPPRLPRPRPRPCISPRP | 0.0212 |
| RRIRYRPPRLPRPRPRPCLHPRP | -0.633 |

From the supplement of paper PMC9112550, “Optimization of the antimicrobial peptide Bac7 by deep mutational scanning” (BMC Biology, 2022)
